Measured values from the RNAGym collection of RNA variant scans (doi:10.7554/elife.80360).

B1: HDV Ribozyme (parent)
chain: GGCCGGCAUGGUCCCAGCCUCCUCGCUGGCGCCGGCUGGGCAACAUUCCGAGGGGACCGUCCCCUCGGUAAUGGCGAAUGGGACCCA

Variants of: B1
Test: self-cleavage, relative activity (ratio to wild type); higher = more cleavage; co-transcriptional

Variant | self-cleavage
GGCCGGCAUGGUCCCAGCCUCCUCGCUGGCGCCGGCUGGGCAACAUUCCGAGGGUACCGUCCCCUCGGUAAUGGCGAAUGCGACCCA | 0.106
GGCCGGCAUGGUCCCAGCCUCCUCGCUGGCGCCGGCUGGGCAACAUUCCGAGGGUACCGUCCCCUCGGUAAUGGCGAAUGUGACCCA | 0.272
GGCCGGCAUGGUCCCAGCCUCCUCGCUGGCGCCGGCUGGGCAACAUUCCGAGGGCACCGUCCCCUCGGUAAUUGCGAAUGGGACCCA | 0.277
GGCCGGCAUGGUCCCAGCCUCCUCGCUGGCGCCGGCUGGGCAACAUUCCGAGGGUACCGUCCCCUCGGUAAUGGCGAAUCGGACCCA | 0.175
GGCCGGCAUGGUCCCAGCCUCCUCGCUGGCGCCGGCUGGGCAACAUUCCGAGGGUACCGUCCCCUCGGUAAUGGCGAAUUGGACCCA | 0.21
GGCCGGCAUGGUCCCAGCCUCCUCGCUGGCGCCGGCUGGGCAACAUUCCGAGGGCACCGUCCCCUCGGUAAUGGCGAACGGGACCCA | 0.513
GGCCGGCAUGGUCCCAGCCUCCUCGCUGGCGCCGGCUGGGCAACAUUCCGAGGGUACCGUCCCCUCGGUACUGGCGAAUGGGACCCA | 0.725
GGCCGGCAUGGUCCCAGCCUCCUCGCUGGCGCCGGCUGGGCAACAUUCCGAGGGCACCGUCCCCUCGAUAAUGGCGAAUGGGACCCA | 0.967
GGCCGGCAUGGUCCCAGCCUCCUCGCUGGCGCCGGCUGGGCAACAUUCCGAGGGCACCGUCCCCUCGGUGAUGGCGAAUGGGACCCA | 0.848
GGCCGGCAUGGUCCCAGCCUCCUCGCUGGCGCCGGCUGGGCAACAUUCCGAGGGCACCGUCCCAUCGGUAAUGGCGAAUGGGACCCA | 0.855
GGCCGGCAUGGUCCCAGCCUCCUCGCUGGCGCCGGCUGGGCAACAUUCCGAGGGUACCGUCCCCUCGGUAAUGGCGAAUGGGACCGA | 1.03
GGCCGGCAUGGUCCCAGCCUCCUCGCUGGCGCCGGCUGGGCAACAUUCCGAGGGUACCGUCCCCUCGGUAAUGGCGAAUGGGACCCC | 1.01
GGCCGGCAUGGUCCCAGCCUCCUCGCUGGCGCCGGCUGGGCAACAUUCCGAGGGUACCGUCCCCUCGGUAAUGGCGAAUGGGACCCG | 0.984
GGCCGGCAUGGUCCCAGCCUCCUCGCUGGCGCCGGCUGGGCAACAUUCCGAGGGCACCGUCCCCUCGGUAAUGGAGAAUGGGACCCA | 0.148
GGCCGGCAUGGUCCCAGCCUCCUCGCUGGCGCCGGCUGGGCAACAUUCCGAGGGCACCGUCCCCUCGGUAAUGGUGAAUGGGACCCA | 0.0361
GGCCGGCAUGGUCCCAGCCUCCUCGCUGGCGCCGGCUGGGCAACAUUCCGAGGGAACCGUCCCCUCGGUAAUGGCGAAUUGGACCCA | 0.13

Variant | self-cleavage
GGCCGGCAUGGUCCCAGCCUCCUCGCUGGCGCCGGCUGGGCAACAUUCCGAGGGCACCGUCCCCCCGGUAAUGGCGAAUGGGACCCA | 0.867
GGCCGGCAUGGUCCCAGCCUCCUCGCUGGCGCCGGCUGGGCAACAUUCCGAGGGCACCGUCCCCACGGUAAUGGCGAAUGGGACCCA | 0.88
GGCCGGCAUGGUCCCAGCCUCCUCGCUGGCGCCGGCUGGGCAACAUUCCGAGGGUACCCUCCCCUCGGUAAUGGCGAAUGGGACCCA | 1.02
GGCCGGCAUGGUCCCAGCCUCCUCGCUGGCGCCGGCUGGGCAACAUUCCGAGGGUACCGUCCCAUCGGUAAUGGCGAAUGGGACCCA | 0.94
GGCCGGCAUGGUCCCAGCCUCCUCGCUGGCGCCGGCUGGGCAACAUUCCGAGGGCACCGGCCCCUCGGUAAUGGCGAAUGGGACCCA | 0.898
GGCCGGCAUGGUCCCAGCCUCCUCGCUGGCGCCGGCUGGGCAACAUUCCGAGGGCACCGACCCCUCGGUAAUGGCGAAUGGGACCCA | 1.05
GGCCGGCAUGGUCCCAGCCUCCUCGCUGGCGCCGGCUGGGCAACAUUCCGAGGGAACCGUCCCCUCGGUAAUGGCGAAUGAGACCCA | 0.535
GGCCGGCAUGGUCCCAGCCUCCUCGCUGGCGCCGGCUGGGCAACAUUCCGAGGGAACCGUCCCCUCGGUAAUGGCGAAUGGCACCCA | 0.356
GGCCGGCAUGGUCCCAGCCUCCUCGCUGGCGCCGGCUGGGCAACAUUCCGAGGGAACCGUCCCCUCGGUAAUGGCGAAUGGAACCCA | 0.324
GGCCGGCAUGGUCCCAGCCUCCUCGCUGGCGCCGGCUGGGCAACAUUCCGAGGGCACCGUGCCCUCGGUAAUGGCGAAUGGGACCCA | 0.959
GGCCGGCAUGGUCCCAGCCUCCUCGCUGGCGCCGGCUGGGCAACAUUCCGAGGGUACGGUCCCCUCGGUAAUGGCGAAUGGGACCCA | 1.04
GGCCGGCAUGGUCCCAGCCUCCUCGCUGGCGCCGGCUGGGCAACAUUCCGAGGGUCCCGUCCCCUCGGUAAUGGCGAAUGGGACCCA | 0.944
GGCCGGCAUGGUCCCAGCCUCCUCGCUGGCGCCGGCUGGGCAACAUUCCGAGGGUACCGUCCCCUCGGUAAUAGCGAAUGGGACCCA | 0.533
GGCCGGCAUGGUCCCAGCCUCCUCGCUGGCGCCGGCUGGGCAACAUUCCGAGGGUACCGUCCCCUCGGUAAUGGCGAAUGGGAACCA | 0.886
GGCCGGCAUGGUCCCAGCCUCCUCGCUGGCGCCGGCUGGGCAACAUUCCGAGGGAACCGUCCCCUCGGUAAUGGCGAAGGGGACCCA | 0.85
GGCCGGCAUGGUCCCAGCCUCCUCGCUGGCGCCGGCUGGGCAACAUUCCGAGGGAACCGUCCCCUCGGUAAUGGCGAAAGGGACCCA | 0.582
